Read-outs that look alike come from different tables or passages of the source. Numbered stars: 1 amine (or outer) side, 2 acyl side, 3 side chain; on linkers, the order of the positions; unused ones are H or OH. Square brackets hold non-standard residues; d marks the D form. Peptide text beside a SMILES is read from it. * marks the point of attachment. Pipz(1-CH2CO,4-CH2CH2NH) = O=C(CN1CCN(CCN[*:1])CC1)[*:2]; X1 = CC[C@@]1(O*)C(=O)OCc2c1cc1n(c2=O)Cc2cc3ccccc3nc2-1; Suc = O=C(CCC(=O)[*:2])[*:1]; Nle = CCCC[C@H](N)C(=O)O; AEEA = NCCOCCOCC(=O)O; GABA = NCCCC(=O)O; βAla = NCCC(=O)O
What was measured:
hSSTR-1 = target: T1, hSSTR-1 (Homo sapiens, UniProt P30872); assay: Somatostatin receptor radioligand binding, hSSTR-1 (CHO-K1 membranes); details: read-out: Ki hSSTR1 ± (SEM)
T1 construct: expressed in transfected cells; host or cells: CHO-K1
T1 sequence (P30872 whole entry): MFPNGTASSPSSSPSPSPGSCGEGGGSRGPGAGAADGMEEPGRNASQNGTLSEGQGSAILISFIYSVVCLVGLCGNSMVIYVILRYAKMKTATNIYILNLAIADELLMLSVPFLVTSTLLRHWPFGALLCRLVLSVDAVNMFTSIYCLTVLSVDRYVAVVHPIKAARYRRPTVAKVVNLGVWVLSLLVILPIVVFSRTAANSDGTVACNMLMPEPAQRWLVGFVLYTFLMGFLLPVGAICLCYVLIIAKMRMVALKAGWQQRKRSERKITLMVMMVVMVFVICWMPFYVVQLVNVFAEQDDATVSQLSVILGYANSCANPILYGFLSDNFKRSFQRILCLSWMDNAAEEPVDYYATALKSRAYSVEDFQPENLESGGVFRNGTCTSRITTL
Description: Membranes for in vitro receptor binding assays were obtained by homogenizing (Polytron setting 6, 15 sec) CHO-K1 cells expressing human somatostatin receptor subtypes hSSTR-1, hSSTR-2, hSSTR-3, hSSTR-4 or hSSTR-5 in ice-cold 50 mM Tris-HCl. The homogenized cells were centrifuged twice at 39,000 g for 10 minutes with an intermediate resuspension in fresh buffer. The final pellets were resuspended in 10 mM Tris-HCl to prepare the cell membrane homogenate for use in the binding assay.
The final assay volume was 0.3 ml.
The cell membrane homogenate was incubated with the radioligands for 90 minutes at 25° C. The incubations were terminated by rapid filtration through GF/C filters pre-soaked in 0.3% polyethylenimine using a Brandel® filtration manifold (Gaithersberg, Md., U.S.A.). Each tube and filter was washed three times with 5-ml aliquots of ice-cold buffer. Specific binding was defined as the total radioligand bound minus that bound in the presence of 1000 nM SRIF-14 (for hSSTR-1, hSSTR-3, hSSTR-4 or hSSTR-5), or 1000 nM DPhe-c(Cys-Tyr-D-Trp-Lys-Abu-Cys)-Thr-NH2 for hSSTR-2.

[1] = Half-life determination in human plasma (LC-MS); assay type: in vitro ADME; details: 37° C.
Description: (§1) Samples containing approximately 50 μg/ml up to and including approximately 500 μg/ml of test compound according to Formula IA or IB or II was added to 450 μl human or mouse plasma, vortexed briefly and incubated at 37° C. At various time intervals, e.g., 0, 0.5, 1, 2, 4, 6, 8, 24, 36 and 48 hours, 50 μl of the compound-plasma mixture was added to 150 μl acetonitrile in a microcentrifuge tube. The mixture was vortexed, centrifuged for 5 minutes at 10K RPM, and 135 μl of supernatant was transferred to an injection vial. The recovered supernatant was analyzed by using a liquid chromatography-mass spectrophotometer system (LC-MS) consisting of a Finnigan Deca XP® mass spectrometer with an ESI probe at the positive ion mode. HPLC separation was carried out on a Luna 3μ C8 (2)® 3×50 mm column with a gradient decreasing from 100% A to 80% B for 10 minutes at a flow rate of 0.25 ml/min. Buffer A was 0.1% acetic acid in water and buffer B was 0.1% acetic acid acetonitrile.

[2] = Half-life determination in mouse plasma (LC-MS); assay type: in vitro ADME; details: 37° C.
Description: as §1

hSSTR-4 = target: T2, hSSTR-4 (Homo sapiens, UniProt P31391); assay: Somatostatin receptor radioligand binding, hSSTR-4 (CHO-K1 membranes); details: read-out: Ki hSSTR4 ± (SEM)
T2 construct: expressed in transfected cells; host or cells: CHO-K1
T2 sequence (P31391 whole entry): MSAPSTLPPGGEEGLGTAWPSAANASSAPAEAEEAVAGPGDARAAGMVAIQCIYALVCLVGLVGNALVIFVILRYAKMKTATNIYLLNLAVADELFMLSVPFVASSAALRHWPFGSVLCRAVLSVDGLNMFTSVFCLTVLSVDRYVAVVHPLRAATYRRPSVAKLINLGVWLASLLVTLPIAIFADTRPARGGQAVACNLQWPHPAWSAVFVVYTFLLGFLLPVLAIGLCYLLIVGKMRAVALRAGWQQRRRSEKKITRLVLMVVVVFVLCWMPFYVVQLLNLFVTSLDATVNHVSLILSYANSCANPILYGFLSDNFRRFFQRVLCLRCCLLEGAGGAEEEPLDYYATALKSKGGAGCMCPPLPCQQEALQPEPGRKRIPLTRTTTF

[3] = [125I-Tyr11]SRIF-14, value of 1000 indicates at least 1000

Compound | Ki (hSSTR-1) [nM] | half-life [1] [min] | half-life [2] [min] | Ki (hSSTR-4) [nM] | Ki (hSSTR-1; [3]) [nM] | Ki (hSSTR-4; [3]) [nM]
CC[C@@H]1NC(=O)[C@H](CCCCN)NC(=O)[C@@H](Cc2c[nH]c3ccccc23)NC(=O)[C@H](Cc2ccc(O)cc2)NC(=O)[C@@H](NC(=O)[C@@H](Cc2ccccc2)NC(=O)CN2CCN(CCNC(=O)CCOCCOCCOCCOCCOCCOCCOCCOCCOCCOCCOCCOCCNC(=O)CCC(=O)N[C@H](CC(=O)O)C(=O)O[C@]3(CC)C(=O)OCc4c3cc3n(c4=O)Cc4cc5ccccc5nc4-3)CC2)CSSC[C@@H](C(=O)N[C@H](C(N)=O)[C@@H](C)O)NC1=O [Example 30, Camptothecin-rvDAsp-Suc-Peg11-Aepa-DPhe-c(Cys-Tyr-DTrp-Lys-Abu-Cys)-Thr-NH2] | ≥ 1000 | – | – | – | – | –
CCCC[C@H](NC(=O)[C@H](CC(C)C)NC(=O)[C@H](Cc1c[nH]cn1)NC(=O)CCNC(=O)[C@@H](NC(=O)[C@H](C)NC(=O)[C@H](Cc1c[nH]c2ccccc12)NC(=O)[C@H](CCC(N)=O)NC(=O)[C@@H](Cc1ccc(O)cc1)NC(=O)[C@@H](C)NC(=O)[C@H](CCCNC(=N)N)NC(=O)COCCOCCNC(=O)COCCOCCNC(=O)COCCOCCNC(=O)COCCOCCNC(=O)CCC(=O)NCC(=O)O[C@]1(CC)C(=O)OCc2c1cc1n(c2=O)Cc2cc3ccccc3nc2-1)C(C)C)C(N)=O [Example 26, Camptothecin-rvGly-Suc-(Doc)4-Arg-D-Ala-D-Tyr-Gln-Trp-Ala-Val-β-Ala-His-Leu-Nle-NH2] ({X1-Gly-Suc-AEEA-AEEA-AEEA-AEEA}-R[dA][dY]QWAV[βAla]HL[Nle]-NH2) | – | 84 | 108 | – | – | –
CCCC[C@H](NC(=O)[C@H](CC(C)C)NC(=O)[C@H](Cc1c[nH]cn1)NC(=O)CCNC(=O)[C@@H](NC(=O)[C@H](C)NC(=O)[C@H](Cc1c[nH]c2ccccc12)NC(=O)[C@H](CCC(N)=O)NC(=O)[C@@H](Cc1ccc(O)cc1)NC(=O)[C@@H](CO)NC(=O)CCCNC(=O)CN1CCN(CCNC(=O)COCCOCCNC(=O)COCCOCCNC(=O)COCCOCCNC(=O)COCCOCCNC(=O)CCC(=O)NCC(=O)O[C@]2(CC)C(=O)OCc3c2cc2n(c3=O)Cc3cc4ccccc4nc3-2)CC1)C(C)C)C(N)=O [Example 28, Camptothecin-rvGly-Suc-(Doc)4-Aepa-Gaba-D-Ser-D-Tyr-Gln-Trp-Ala-Val-β-Ala-His-Leu-Nle-NH2] ({X1-Gly-Suc-AEEA-AEEA-AEEA-AEEA}-[Pipz(1-CH2CO,4-CH2CH2NH)][GABA][dS][dY]QWAV[βAla]HL[Nle]-NH2) | – | 114 | 174 | – | – | –
CC[C@@H]1NC(=O)[C@H](CCCCN)NC(=O)[C@@H](Cc2c[nH]c3ccccc23)NC(=O)[C@H](Cc2ccc(O)cc2)NC(=O)[C@@H](NC(=O)[C@@H](Cc2ccccc2)NC(=O)CN2CCN(CCNC(=O)COCCOCCNC(=O)COCCOCCNC(=O)COCCOCCNC(=O)COCCOCCNC(=O)CCCC(=O)O[C@]3(CC)C(=O)OCc4c3cc3n(c4=O)Cc4cc5ccccc5nc4-3)CC2)CSSC[C@@H](C(=O)N[C@H](C(N)=O)[C@@H](C)O)NC1=O [Example 16, Camptothecin-Glut-(Doc)4-Aepa-D-Phe-c(Cys-Tyr-D-Trp-Lys-Abu-Cys)-Thr-NH2] | ≥ 1000 | 216 | 252 | ≥ 1000 | – | –
CC[C@@H]1NC(=O)[C@H](CCCCN)NC(=O)[C@@H](Cc2c[nH]c3ccccc23)NC(=O)[C@H](Cc2ccc(O)cc2)NC(=O)[C@@H](NC(=O)[C@@H](Cc2ccccc2)NC(=O)CN2CCN(CCNC(=O)COCCOCCNC(=O)COCCOCCNC(=O)COCCOCCNC(=O)COCCOCCNC(=O)CCC(=O)N[C@@H](Cc3ccccc3)C(=O)O[C@]3(CC)C(=O)OCc4c3cc3n(c4=O)Cc4cc5ccccc5nc4-3)CC2)CSSC[C@@H](C(=O)N[C@H](C(N)=O)[C@@H](C)O)NC1=O [Example 10, Camptothecin-rvPhe-Suc-(Doc)4-Aepa-D-Phe-c(Cys-Tyr-D-Trp-Lys-Abu-Cys)-Thr-NH2] | ≥ 1000 | 18 | 144 | ≥ 1000 | – | –
CCCC[C@H](NC(=O)[C@H](CC(C)C)NC(=O)[C@H](Cc1c[nH]cn1)NC(=O)CCNC(=O)[C@@H](NC(=O)[C@H](C)NC(=O)[C@H](Cc1c[nH]c2ccccc12)NC(=O)[C@H](CCC(N)=O)NC(=O)[C@@H](Cc1ccc(O)cc1)NC(=O)[C@@H](CO)NC(=O)[C@H](CCCCN)NC(=O)COCCOCCNC(=O)COCCOCCNC(=O)COCCOCCNC(=O)COCCOCCNC(=O)CCC(=O)NCC(=O)O[C@]1(CC)C(=O)OCc2c1cc1n(c2=O)Cc2cc3ccccc3nc2-1)C(C)C)C(N)=O [Example 25, Camptothecin-rvGly-Suc-(Doc)4-Lys-D-Ser-D-Tyr-Gln-Trp-Ala-Val-β-Ala-His-Leu-Nle-NH2] ({X1-Gly-Suc-AEEA-AEEA-AEEA-AEEA}-K[dS][dY]QWAV[βAla]HL[Nle]-NH2) | – | 144 | 156 | – | – | –
Camptothecin-rvD-Glu-Suc-(Doc)4-Aepa-D-Phe-c(Cys-Tyr-D-Trp-Lys-Abu-Cys)-Thr-NH2 and Camptothecin-rvGlu-Suc-(Doc)4-Aepa-D-Phe-c(Cys-Tyr-D-Trp-Lys-Abu-Cys)-Thr-NH2 [Example 6] | – | – | – | – | ≥ 1000 | ≥ 1000
CC[C@@H]1NC(=O)[C@H](CCCCN)NC(=O)[C@@H](Cc2c[nH]c3ccccc23)NC(=O)[C@H](Cc2ccc(O)cc2)NC(=O)[C@@H](NC(=O)[C@@H](Cc2ccccc2)NC(=O)CN2CCN(CCNC(=O)COCCOCCNC(=O)COCCOCCNC(=O)COCCOCCNC(=O)COCCOCCNC(=O)CCC(=O)N[C@H](CCC(=O)O)C(=O)O[C@]3(CC)C(=O)OCc4c3cc3n(c4=O)Cc4cc5ccccc5nc4-3)CC2)CSSC[C@@H](C(=O)N[C@H](C(N)=O)[C@@H](C)O)NC1=O [Example 31, Camptothecin-rvDGlu-Suc-(Doc)4-Aepa-DPhe-c(Cys-Tyr-DTrp-Lys-Abu-Cys)-Thr-NH2] | ≥ 1000 | – | – | – | – | –
CC[C@@H]1NC(=O)[C@H](CCCCN)NC(=O)[C@@H](Cc2c[nH]c3ccccc23)NC(=O)[C@H](Cc2ccc(O)cc2)NC(=O)[C@@H](NC(=O)[C@@H](Cc2ccccc2)NC(=O)CN2CCN(CCNC(=O)COCCOCCNC(=O)COCCOCCNC(=O)COCCOCCNC(=O)COCCOCCNC(=O)CCC(=O)NCCCCC(=O)O[C@]3(CC)C(=O)OCc4c3cc3n(c4=O)Cc4cc5ccccc5nc4-3)CC2)CSSC[C@@H](C(=O)N[C@H](C(N)=O)[C@@H](C)O)NC1=O [Example 11, Camptothecin-rvApn-Suc-(Doc)4-Aepa-D-Phe-c(Cys-Tyr-D-Trp-Lys-Abu-Cys)-Thr-NH2] | ≥ 1000 | 300 | 222 | ≥ 1000 | – | –
CC[C@@H]1NC(=O)[C@H](CCCCN)NC(=O)[C@@H](Cc2c[nH]c3ccccc23)NC(=O)[C@H](Cc2ccc(O)cc2)NC(=O)[C@@H](NC(=O)[C@@H](Cc2ccccc2)NC(=O)CN2CCN(CCNC(=O)COCCOCCNC(=O)COCCOCCNC(=O)COCCOCCNC(=O)COCCOCCNC(=O)CCC(=O)N[C@@H](CC)C(=O)O[C@]3(CC)C(=O)OCc4c3cc3n(c4=O)Cc4cc5ccccc5nc4-3)CC2)CSSC[C@@H](C(=O)N[C@H](C(N)=O)[C@@H](C)O)NC1=O [Example 12, Camptothecin-rvAbu-Suc-(Doc)4-Aepa-D-Phe-c(Cys-Tyr-D-Trp-Lys-Abu-Cys)-Thr-NH2] | ≥ 1000 | 42 | 360 | ≥ 1000 | – | –
CCc1c2c(nc3ccc(O)cc13)-c1cc3c(c(=O)n1C2)COC(=O)[C@@]3(CC)OC(=O)CNC(=O)CCC(=O)NCCOCCOCC(=O)NCCOCCOCC(=O)NCCOCCOCC(=O)NCCOCCOCC(=O)NCCN1CCN(CC(=O)N[C@H](Cc2ccccc2)C(=O)N[C@H]2CSSC[C@@H](C(=O)N[C@H](C(N)=O)[C@@H](C)O)NC(=O)[C@H](CC)NC(=O)[C@H](CCCCN)NC(=O)[C@@H](Cc3c[nH]c4ccccc34)NC(=O)[C@H](Cc3ccc(O)cc3)NC2=O)CC1 [Example 19, SN38-rvGly-Suc-(Doc)4-Aepa-D-Phe-c(Cys-Tyr-D-Trp-Lys-Abu-Cys)-Thr-NH2] | ≥ 1000 | 414 | 156 | – | – | –
CC[C@@H]1NC(=O)[C@H](CCCCN)NC(=O)[C@@H](Cc2c[nH]c3ccccc23)NC(=O)[C@H](Cc2ccc(O)cc2)NC(=O)[C@@H](NC(=O)[C@@H](Cc2ccccc2)NC(=O)CN2CCN(CCNC(=O)COCCOCCOCCNC(=O)COCCOCCOCCNC(=O)COCCOCCOCCNC(=O)CCC(=O)N[C@H](CC(=O)O)C(=O)O[C@]3(CC)C(=O)OCc4c3cc3n(c4=O)Cc4cc5ccccc5nc4-3)CC2)CSSC[C@@H](C(=O)N[C@H](C(N)=O)[C@@H](C)O)NC1=O [Example 29, Camptothecin-rvDAsp-Suc-(Peg3)3-Aepa-DPhe-c(Cys-Tyr-DTrp-Lys-Abu-Cys)-Thr-NH2] | ≥ 1000 | 558 | 2650 | – | – | –

Source: patent publication US8236762B2, “Peptide-cytotoxic conjugates” (IPSEN Pharma S.A.S., priority 2006, dated 2012)
